Experimental findings from US20140170168A1 (published 2014) are described below.

T1: RTL302 (empty two-domain HLA-DR2 RTL) (human)
T1 construct: Two-domain MHC class II without antigenic peptide; also called empty DR2; DR2 (empty)
T1 chain: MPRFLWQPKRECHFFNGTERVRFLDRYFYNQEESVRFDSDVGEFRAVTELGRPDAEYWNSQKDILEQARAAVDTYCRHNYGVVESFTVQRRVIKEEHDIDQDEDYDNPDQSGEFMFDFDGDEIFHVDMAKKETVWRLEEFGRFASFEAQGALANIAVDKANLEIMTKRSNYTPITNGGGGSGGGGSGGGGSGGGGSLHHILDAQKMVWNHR

T2: RTL2010 (two-domain β1α1 HLA-DR4 with covalently linked GAD-555-567 peptide) (human)
T2 construct: also called RTL2010-BirA
T2 chain: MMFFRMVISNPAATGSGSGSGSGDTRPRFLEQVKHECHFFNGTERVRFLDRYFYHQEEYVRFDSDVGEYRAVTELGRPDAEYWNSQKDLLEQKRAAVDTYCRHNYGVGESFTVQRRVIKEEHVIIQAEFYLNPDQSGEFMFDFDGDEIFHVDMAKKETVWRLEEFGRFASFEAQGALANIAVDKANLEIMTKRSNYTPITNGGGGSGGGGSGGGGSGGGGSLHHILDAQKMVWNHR

T3: RTL600 (empty two-domain HLA-DP2 RTL) (human)
T3 construct: also called DP2 (empty)
T3 chain: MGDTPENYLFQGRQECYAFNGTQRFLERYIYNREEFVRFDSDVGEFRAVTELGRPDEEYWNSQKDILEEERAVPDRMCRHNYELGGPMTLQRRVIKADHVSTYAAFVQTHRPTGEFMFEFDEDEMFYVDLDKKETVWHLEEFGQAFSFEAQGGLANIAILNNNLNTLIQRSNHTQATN

T4: RTL340 (two-domain β1α1 HLA-DR2 with covalently linked MBP-85-99 peptide) (human)
T4 construct: also called RTL340-BirA; DR2/MBP-85-99
T4 chain: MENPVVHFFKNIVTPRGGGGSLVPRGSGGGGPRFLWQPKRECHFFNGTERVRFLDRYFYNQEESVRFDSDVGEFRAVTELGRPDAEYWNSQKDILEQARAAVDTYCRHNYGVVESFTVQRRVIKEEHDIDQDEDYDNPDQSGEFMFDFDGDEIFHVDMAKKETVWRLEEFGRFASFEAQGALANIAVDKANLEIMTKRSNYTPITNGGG

T5: RTL302 (empty DR2 RTL) loaded with free MOG-35-55 peptide (human)
T5 construct: also called empty β1α1DR2-RTL loaded with MOG-35-55 peptide; MOG-35-55 loaded empty RTL302
T5 chain: T1 chain
T5 peptide: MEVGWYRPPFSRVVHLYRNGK

T6: RTL342m (two-domain β1α1 HLA-DR2 with mouse MOG-35-55 peptide) (mouse)
T6 construct: Differs from RTL1000 by the Pro to Ser change at position 42 of MOG; also called DR2/mMOG-35-55; β1α1DR2/mMOG-35-55
T6 chain: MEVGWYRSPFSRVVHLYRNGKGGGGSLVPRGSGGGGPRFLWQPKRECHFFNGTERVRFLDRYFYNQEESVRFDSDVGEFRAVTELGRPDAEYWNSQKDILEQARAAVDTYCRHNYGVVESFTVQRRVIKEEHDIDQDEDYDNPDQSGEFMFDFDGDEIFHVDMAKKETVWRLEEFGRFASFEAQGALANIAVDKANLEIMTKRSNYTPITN

B1: Fab 1B11 (Fab, V domains shown)
VH: EVQLVQSGAEVKKPGASVRVSCKASGYTFTSYGISWVRQAPGQGLEWMGWISAYNGNTNYAQKLQGRVTMTTDTSTSTAYMELRSLRSDDTAVYYCARDIRAYGSGSYSRYYYYGMDVWGQGTTVTVSS
VL: EIVLTQSPATLSVSPGERATLSCRASQNIGSILAWYQHKPGQAPRLLIYGASTRATGIPARFSGSGSGTEFTLTISSLQSDDFAVYYCQQYLYWPFTFGGGTKVEIKR
notes: also called 1B11 Fab
B2: RTL1000 (two-domain β1α1 HLA-DR2 with covalently linked human MOG-35-55 peptide) (peptide-MHC)
chain: MEVGWYRPPFSRVVHLYRNGKGGGGSLVPRGSGGGGPRFLWQPKRECHFFNGTERVRFLDRYFYNQEESVRFDSDVGEFRAVTELGRPDAEYWNSQKDILEQARAAVDTYCRHNYGVVESFTVQRRVIKEEHDIDQDEDYDNPDQSGEFMFDFDGDEIFHVDMAKKETVWRLEEFGRFASFEAQGALANIAVDKANLEIMTKRSNYTPITNGGGGSGGGGSGGGGSGGGGSLHHILDAQKMVWNHR
notes: also called RTL1000-BirA; DR2/MOG-35-55
B3: Fab 3H5 (Fab, V domains shown)
VH: QVQLQESGPGLVKPSETLSLTCTVSGGSISGYYWSWIRQPPGKGLEWIGYIYYSGSTNYNPSLKSRVSISVDTSKNQFSLRLSSVTAADSAVYFCARDERDAYYYGMDVWGQGTTVTVSS
VL: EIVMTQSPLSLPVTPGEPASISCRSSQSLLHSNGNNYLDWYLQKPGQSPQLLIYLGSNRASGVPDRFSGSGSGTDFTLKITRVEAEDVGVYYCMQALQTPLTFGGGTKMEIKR
notes: also called 3H5 Fab
B4: Fab 2E4 (Fab, V domains shown)
VH: EVQLVESGAEVKKPGASVKVSCKASGYTFTSYYMHWVRQAPGQGLEWMGIINPSGGSTSYAQKFQGRVTMTRDTSTSTVYMELSSLRSEDTAVYYCAREGDNYYGDAFDIWGQGTMVTVSS
VL: EIVLTQSPATLSLSPGERATLSCRASQSVSSYLAWYQQKPGQAPRLLIYDASNRATGIPARFSGSGSGTDFTLTISSLEPEDFAVYYCQQRSNWPPSYTFGQGTKLEIKR
notes: also called 2E4 Fab; anti-RTL1000 TCRL Fab
B5: Fab 2C3 (Fab, V domains shown)
VH: QVQLVQSGGGVVQPGRSLRLSCAASGFTFSSYAMHWVRQAPGKGLEWVAVISYDGSNKYYADSVKGRFTISRDNSKNTLYLQMNSLRAEDTAVYYCARDRSFWSGYYIINYYYYGMDVWGQGTTVTVSS
VL: DVVMTQSPLSLPVTPGEPASISCRSSQSLLHSDGNNYLDWYLQKPGQSPQLLIYLGSNRASGVPDRFSGSGSGTDFTLKISRVEPEDVGVYYCMQALHIPLTFGQGTRLEIKR
notes: also called 2C3 Fab
B6: Fab D2 (Fab, V domains shown)
VH: EVQLVQSGAEVKKPGSSVKVSCKASGGTFSSYAISWVRQAPGQGLEWMGIINPSGGSTSYAQKFQGRVTITADKSTSTAYMELSSLRSEDTAVYYCARGGPTGIFDYWGQGTLVTVSS
VL: EIVLTQSPATLSLSPGERATLSCRASQSVSSYLAWYQQKPGQAPRLLIYDASNRATGIPARFSGSGSGTDFTLTISSLEPEDFAVYYCQQRSNWPLTFGGGTKVEIKR
notes: the heavy chain entry holds VH, CH1, connector, His tag and Myc tag; also called D2 Fab
B7: Fab 3A3 (Fab, V domains shown)
VH: QVQLQESGGGLVKPGGSLRLSCAASGFTFSSYSMNWVRQAPGKGLEWVSSISSSSSYIYYADSVKGRFTISRDNAKNSLYLQMNSLRAEDTAVYYCARVRGHRYYYDSSGYYSSDYYYYYGMDVWGQGTTVTVSS
VL: DIQLTQSPSSVSASVGDRVTITCRASQVISSWLAWYQQKPGKAPKLLISTASSLQSGVPPRFSGSGSGTDFTLTITSLQPEDFATYYCQQANSFPLTFGQGTKVEIKR
notes: also called 3A3 Fab
B8: Fab 1F11 (Fab, V domains shown)
VH: QLQLQESGPGLVKPSETLSLTCTVSGVSISSRSGHWGWVRQPPGKGLEWIGSISYSGSTYYNPSLKSRVTISVDTSKNQLSLKLSSVTAADTAVYYCARESHPAAALVGWGQGTLVTVSS
VL: ETTLTQSPGTLSLSPGERATLSCRASQSIINSHLAWYQQKPGQAPRLLIYGASSRATGIPDRFSGGGSGTDFTLTITRLETEDFALYFCQQYGTSPLTFGGGTRVETKR
notes: also called 1F11 Fab

For test [1], the target named is T1, RTL302 (empty two-domain HLA-DR2 RTL). The test can be described thus: ELISA, soluble purified Fab on immobilised biotinylated complex or peptide.
Method: (§1) Binding specificity of individual phage clone supernatants and soluble Fab fragments were determined by ELISA using biotinylated two and four-domain MHC/peptide complexes. ELISA plates (Falcon) were coated overnight with BSA-biotin (1 μg/well). After being washed, the plates were incubated (1 hour at room temperature) with streptavidin (10 μg/ml), washed extensively and further incubated (1 hour at room temperature) with 5 μg/ml of MHC/peptide complexes. The plates were blocked for 30 minutes at room temperature with PBS/2% skim milk and subsequently were incubated for 1 hour at room temperature with phage clone supernatants (induced at OD₆₀₀=0.8-1.0 for overnight expression at 30° C.) or 5 μg/ml soluble purified Fab. After washing, plates were incubated with horseradish peroxidase-conjugated/anti-human-Fab antibody. Detection was performed using TMB reagent (Sigma). For binding of peptide-loaded RTLs, ELISA plates were coated 2 hours at 37° C. with purified Fab, washed extensively and blocked for 30 minutes with PBS/2% skim milk. […] After washing, plates were incubated with horseradish peroxidase-conjugated/anti-mouse-IgG antibody and detection was performed as described above.
The target of test [2] is T2, RTL2010 (two-domain β1α1 HLA-DR4 with …). Briefly: ELISA, purified Fab 1B11 on immobilised RTLs and four-domain complexes. On the technique in general: ELISA stands for enzyme-linked immunosorbent assay.
Method: as §1
Test [3] deals with T3, RTL600 (empty two-domain HLA-DP2 RTL). The test is described as above.
Method: as §1
For the test “Fab 2E4”, the target named is B4. The test can be described thus: competition ELISA: soluble competitor varied, binding of purified Fab 2E4 to immobilised RTL1000 read.
The target in the test “Fab 2C3” is B5. Briefly: competition ELISA: soluble competitor varied, binding of purified Fab 2C3 to immobilised RTL1000 read.
For test [4], the target named is T4, RTL340 (two-domain β1α1 HLA-DR2 with …). Briefly: ELISA, soluble purified Fab on immobilised biotinylated complex or peptide.
Method: as §1
The target of test [5] is B2. The test can be described thus: SPR (ProteOn XPR36), Fab captured by immobilised anti-Fab, RTL1000 injected at 62.5-1000 nM.
Method: Six channels were activated with 50 μl of a mixture of 0.04 M N-ethyl-N-(3-dimethylaminopropyl) carbodiimide (EDC) and 0.01 M sulfo-N-hydroxysuccinimide (Sulfo-NHS) at a flow rate of 30 μl/min. The anti-Fab specific Fab was diluted in 10 mM sodium acetate buffer pH 4.5 to a final concentration of 25 μg/ml, and 150 μl were injected followed by an injection of 150 μl of 1 M ethanolamine-HCl pH 8.5. The immobilization levels were about 4,000 RU. Next, 150 μl of five different supernatants were injected in the vertical orientation in five different channels to allow their capture by the immobilized Fab anti Fab. The sixth channel remained empty to serve as a reference. […] Running buffer was injected simultaneously in the sixth channel for double referencing to correct for loss of the captured supernatant from the chip sensor surface during the experiment. All binding sensorgrams were collected, processed and analyzed using the integrated ProteOn XPR36 system Manager (Bio-Rad Laboratories, Hercules, USA) software. Binding curves were fitted using the Langmuir model describing 1:1 binding stoichiometry, or with the Langmuir and mass transfer limitation model. Each individually captured antibody interacting with the five concentrations of antigen was fitted using a global ka, kd and Rmax. Global fitting is used when the same ka, kd and Rmax values describe a specific biological model like five antigen concentrations interacting with a certain antibody.
Test [6] addresses T5, RTL302 (empty DR2 RTL) loaded with free …. The test can be described thus: sandwich ELISA: plate coated with purified Fab, loaded or empty RTL302 added, detection with mAb TU39.
Method: as §1
The target of test [7] is T6, RTL342m (two-domain β1α1 HLA-DR2 with …). Briefly: ELISA, soluble Fab on immobilised RTL (FIG. 3A).
Method: as §1
The target in test [8] is T2, RTL2010 (two-domain β1α1 HLA-DR4 with …). The test can be described thus: ELISA on immobilised RTL and four-domain complex (FIG. 8C).
Method: as §1

What is called Kd is the free concentration of one partner at which half of the binding sites on the other are occupied at equilibrium, for simple one-to-one binding. A high value points to lower affinity.

For the molecule B1, the values for the binding result in test [1], in test [2] and in test [3] were “binds”, “binds” and “no binding (tested: 5 µg/ml Fab)”, respectively.

For B2, the binding result in the test with Fab 2E4 and in the test with Fab 2C3 was “binds” each time.

As to B3, the figures for the binding result in test [1], in [4] and in test [6] were “no binding (tested: 5 µg/ml Fab)”, “no binding (tested: 5 µg/ml Fab)” and “binds”, respectively. The molecule also registered a Kd in test [5] of 129 nM.

For B4, the “fold reduction in binding to RTL342m compared to RTL1000” value (“fold reduction in binding to RTL342m” for short) in test [7] stood at 2 fold. Moreover, the binding result is recorded as “no binding (tested: 5 µg/ml Fab)” in test [1], “no binding (tested: 5 µg/ml Fab)” in test [4] and “binds” in test [6]. The molecule also returned an equilibrium dissociation constant (Kd) in [5] of 33 nM.

Take B5: the binding result in [1] is on record as “no binding (tested: 5 µg/ml Fab)”; in test [4] it was “no binding (tested: 5 µg/ml Fab)”; in [6] it was “binds”. Moreover, binding in [5] was put at a Kd of 153 nM.

Turning to B6, the binding result in test [8] was “binds”.

With B7, the “fold reduction in binding to RTL342m” value in [7] was 5 fold. Besides, the binding result was “no binding (tested: 5 µg/ml Fab)” in [1], “no binding (tested: 5 µg/ml Fab)” in test [4] and “binds” in test [6]. In [5], this molecule gave a Kd of 58 nM.

As to B8, the “fold reduction in binding to RTL342m” value in test [7] turned out to be 5 fold. Besides, the binding result in [1] is on record as “no binding (tested: 5 µg/ml Fab)”; in [4], “no binding (tested: 5 µg/ml Fab)”; in test [6], “binds”. In addition, the Kd in [5] was determined as 60 nM.
